Measured values from PMC5572738.

Biological target: T1, bacteriorhodopsin (BR) from Halobacterium salinarum (Halobacterium salinarum), P02945
T1 chain: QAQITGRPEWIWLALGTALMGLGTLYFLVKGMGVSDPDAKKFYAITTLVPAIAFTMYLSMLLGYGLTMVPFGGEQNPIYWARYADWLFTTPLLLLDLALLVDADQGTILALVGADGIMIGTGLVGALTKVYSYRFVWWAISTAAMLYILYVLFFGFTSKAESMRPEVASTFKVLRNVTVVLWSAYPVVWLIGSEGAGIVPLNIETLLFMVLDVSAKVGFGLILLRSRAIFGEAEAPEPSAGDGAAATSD
Experiment: SEC; Sephadex 200 column, BR solubilised in DDM; elution position compared with Blue Dextran, alcohol dehydrogenase (150 kDa) and bovine serum albumin (66 kDa)
Conditions: remark: other sources report otherwise

B1: bacteriorhodopsin (BR) from Halobacterium salinarum, P02945 14-262 (natural protein)
chain: T1 chain
modifications: here or on the partner: retinal chromophore attached in a Schiff base linkage to a lysine residue in the seventh helix; retinal chromophore attached in a Schiff base linkage to a lysine residue in the seventh helix
Which stoichiometry N does the source give for B1 here?
The stoichiometry N was 3.
